This test concerns the target purified recombinant human dimeric DPP-4 protein (dipeptidyl peptidase-4) (human), P27487. Put plainly: SEC. The note with it: remark: other sources report otherwise.

B1: purified recombinant human dimeric DPP-4 protein (dipeptidyl peptidase-4), P27487 29-766 (enzyme)
chain: NKGTDDATADSRKTYTLTDYLKNTYRLKLYSLRWISDHEYLYKQENNILVFNAEYGNSSVFLENSTFDEFGHSINDYSISPDGQFILLEYNYVKQWRHSYTASYDIYDLNKRQLITEERIPNNTQWVTWSPVGHKLAYVWNNDIYVKIEPNLPSYRITWTGKEDIIYNGITDWVYEEEVFSAYSALWWSPNGTFLAYAQFNDTEVPLIEYSFYSDESLQYPKTVRVPYPKAGAVNPTVKFFVVNTDSLSSVTNATSIQITAPASMLIGDHYLCDVTWATQERISLQWLRRIQNYSVMDICDYDESSGRWNCLVARQHIEMSTTGWVGRFRPSEPHFTLDGNSFYKIISNEEGYRHICYFQIDKKDCTFITKGTWEVIGIEALTSDYLYYISNEYKGMPGGRNLYKIQLSDYTKVTCLSCELNPERCQYYSVSFSKEAKYYQLRCSGPGLPLYTLHSSVNDKGLRVLEDNSALDKMLQNVQMPSKKLDFIILNETKFWYQMILPPHFDKSKKYPLLLDVYAGPCSQKADTVFRLNWATYLASTENIIVASFDGRGSGYQGDKIMHAINRRLGTFEVEDQIEAARQFSKMGFVDNKRIAIWGWSYGGYVTSMVLGSGSGVFKCGIAVAPVSRWEYYDSVYTERYMGLPTPEDNLDHYRNSTVMSRAENFKQVEYLLIHGTADDNVHFQQSAQISKALVDVGVDFQAMWYTDEDHGIASSTAHQHIYTHMSHFIKQCFSLP
As for B1, the percent present as dimer worked out at 85%.

(Values after paper PMC5683673.)
